Test results from US7138236.

Tested on: p53, unphosphorylated (recombinant full-length)

Substance | in vitro kinase assay (32P incorporation, autoradiography) | phosphorylation site mapping (tryptic/Asp-N peptides, Edman degradation) | kinase assay of chromatographic fractions, Western blot with p53 Ser15-specific antibodies
ATM (A-T mutated) protein purified from HeLa cell nuclear extract | several independently purified ATM preparations were consistently found to phosphorylate p53 with high efficiency | the sites of phosphorylation correspond to p53 residues Ser-15 and Thr-18 | 
ATR (FRP-1) purified from HeLa nuclear extract |  |  | this residue is also phosphorylated by a kinase activity associated with ATR
